Reference: the Human Domainome abundance scans (Beltran et al. 2025)
± gives the uncertainty stated by the source.

B1: SAM and SH3 domain-containing protein 1, residues 630 to 700; numbered along this chain, O94885 (parent)
chain: GRPPQPKSVEDLLDRINLKEHMPTFLFNGYEDLDTFKLLEEEDLDELNIRDPEHRAVLLTAVELLQEYDSN

Variants of: B1
Test: abundance fitness (aPCA) (normalised: wild type 0, dead -1); higher = more abundant; growth selection in yeast, the domain comes from the species named
Details: Homo sapiens

| Variant | abundance fitness |
| --- | --- |
| GRPPQSKSVEDLLDRINLKEHMPTFLFNGYEDLDTFKLLEEEDLDELNIRDPEHRAVLLTAVELLQEYDSN [P6S] | -0.533 ± 0.049 |
| GRPPQNKSVEDLLDRINLKEHMPTFLFNGYEDLDTFKLLEEEDLDELNIRDPEHRAVLLTAVELLQEYDSN [P6N] | -0.792 ± 0.11 |
| GRPPQLKSVEDLLDRINLKEHMPTFLFNGYEDLDTFKLLEEEDLDELNIRDPEHRAVLLTAVELLQEYDSN [P6L] | -0.434 ± 0.045 |
| GRPPQYKSVEDLLDRINLKEHMPTFLFNGYEDLDTFKLLEEEDLDELNIRDPEHRAVLLTAVELLQEYDSN [P6Y] | 0.128 ± 0.049 |
| GRPPQMKSVEDLLDRINLKEHMPTFLFNGYEDLDTFKLLEEEDLDELNIRDPEHRAVLLTAVELLQEYDSN [P6M] | -0.264 ± 0.07 |
| GRPPQKKSVEDLLDRINLKEHMPTFLFNGYEDLDTFKLLEEEDLDELNIRDPEHRAVLLTAVELLQEYDSN [P6K] | -0.63 ± 0.1 |
| GRPPQTKSVEDLLDRINLKEHMPTFLFNGYEDLDTFKLLEEEDLDELNIRDPEHRAVLLTAVELLQEYDSN [P6T] | -0.653 ± 0.072 |
| GRPPQWKSVEDLLDRINLKEHMPTFLFNGYEDLDTFKLLEEEDLDELNIRDPEHRAVLLTAVELLQEYDSN [P6W] | -0.092 ± 0.052 |
| GRPPQQKSVEDLLDRINLKEHMPTFLFNGYEDLDTFKLLEEEDLDELNIRDPEHRAVLLTAVELLQEYDSN [P6Q] | -0.726 ± 0.1 |
| GRPPQVKSVEDLLDRINLKEHMPTFLFNGYEDLDTFKLLEEEDLDELNIRDPEHRAVLLTAVELLQEYDSN [P6V] | -0.168 ± 0.044 |
| GRPPQPSSVEDLLDRINLKEHMPTFLFNGYEDLDTFKLLEEEDLDELNIRDPEHRAVLLTAVELLQEYDSN [K7S] | -0.097 ± 0.038 |
| GRPPQPQSVEDLLDRINLKEHMPTFLFNGYEDLDTFKLLEEEDLDELNIRDPEHRAVLLTAVELLQEYDSN [K7Q] | -0.119 ± 0.067 |
| GRPPQPPSVEDLLDRINLKEHMPTFLFNGYEDLDTFKLLEEEDLDELNIRDPEHRAVLLTAVELLQEYDSN [K7P] | -0.679 ± 0.063 |
| GRPPQPLSVEDLLDRINLKEHMPTFLFNGYEDLDTFKLLEEEDLDELNIRDPEHRAVLLTAVELLQEYDSN [K7L] | -0.323 ± 0.041 |
| GRPPQPMSVEDLLDRINLKEHMPTFLFNGYEDLDTFKLLEEEDLDELNIRDPEHRAVLLTAVELLQEYDSN [K7M] | -0.309 ± 0.066 |
| GRPPQPESVEDLLDRINLKEHMPTFLFNGYEDLDTFKLLEEEDLDELNIRDPEHRAVLLTAVELLQEYDSN [K7E] | -0.002 ± 0.069 |
| GRPPQPFSVEDLLDRINLKEHMPTFLFNGYEDLDTFKLLEEEDLDELNIRDPEHRAVLLTAVELLQEYDSN [K7F] | -0.5 ± 0.053 |
| GRPPQPCSVEDLLDRINLKEHMPTFLFNGYEDLDTFKLLEEEDLDELNIRDPEHRAVLLTAVELLQEYDSN [K7C] | -0.533 ± 0.066 |
| GRPPQPWSVEDLLDRINLKEHMPTFLFNGYEDLDTFKLLEEEDLDELNIRDPEHRAVLLTAVELLQEYDSN [K7W] | -0.873 ± 0.12 |

| Variant | abundance fitness |
| --- | --- |
| GRPPQPISVEDLLDRINLKEHMPTFLFNGYEDLDTFKLLEEEDLDELNIRDPEHRAVLLTAVELLQEYDSN [K7I] | -0.086 ± 0.042 |
| GRPPQPDSVEDLLDRINLKEHMPTFLFNGYEDLDTFKLLEEEDLDELNIRDPEHRAVLLTAVELLQEYDSN [K7D] | -0.213 ± 0.06 |
| GRPPQPASVEDLLDRINLKEHMPTFLFNGYEDLDTFKLLEEEDLDELNIRDPEHRAVLLTAVELLQEYDSN [K7A] | -0.066 ± 0.046 |
| GRPPQPTSVEDLLDRINLKEHMPTFLFNGYEDLDTFKLLEEEDLDELNIRDPEHRAVLLTAVELLQEYDSN [K7T] | 0.095 ± 0.04 |
| GRPPQPVSVEDLLDRINLKEHMPTFLFNGYEDLDTFKLLEEEDLDELNIRDPEHRAVLLTAVELLQEYDSN [K7V] | -0.126 ± 0.043 |
| GRPPQPNSVEDLLDRINLKEHMPTFLFNGYEDLDTFKLLEEEDLDELNIRDPEHRAVLLTAVELLQEYDSN [K7N] | -0.142 ± 0.041 |
| GRPPQPHSVEDLLDRINLKEHMPTFLFNGYEDLDTFKLLEEEDLDELNIRDPEHRAVLLTAVELLQEYDSN [K7H] | -0.308 ± 0.047 |
| GRPPQPKSVYDLLDRINLKEHMPTFLFNGYEDLDTFKLLEEEDLDELNIRDPEHRAVLLTAVELLQEYDSN [E10Y] | -0.418 ± 0.055 |
| GRPPQPKSVADLLDRINLKEHMPTFLFNGYEDLDTFKLLEEEDLDELNIRDPEHRAVLLTAVELLQEYDSN [E10A] | -0.145 ± 0.046 |
| GRPPQPKSVLDLLDRINLKEHMPTFLFNGYEDLDTFKLLEEEDLDELNIRDPEHRAVLLTAVELLQEYDSN [E10L] | -0.532 ± 0.045 |
| GRPPQPKSVIDLLDRINLKEHMPTFLFNGYEDLDTFKLLEEEDLDELNIRDPEHRAVLLTAVELLQEYDSN [E10I] | -0.446 ± 0.056 |
| GRPPQPKSVGDLLDRINLKEHMPTFLFNGYEDLDTFKLLEEEDLDELNIRDPEHRAVLLTAVELLQEYDSN [E10G] | -0.434 ± 0.063 |
| GRPPQPKSVQDLLDRINLKEHMPTFLFNGYEDLDTFKLLEEEDLDELNIRDPEHRAVLLTAVELLQEYDSN [E10Q] | -0.445 ± 0.066 |
| GRPPQPKSVWDLLDRINLKEHMPTFLFNGYEDLDTFKLLEEEDLDELNIRDPEHRAVLLTAVELLQEYDSN [E10W] | -0.511 ± 0.086 |
| GRPPQPKSVPDLLDRINLKEHMPTFLFNGYEDLDTFKLLEEEDLDELNIRDPEHRAVLLTAVELLQEYDSN [E10P] | -0.357 ± 0.05 |
| GRPPQPKSVMDLLDRINLKEHMPTFLFNGYEDLDTFKLLEEEDLDELNIRDPEHRAVLLTAVELLQEYDSN [E10M] | -0.398 ± 0.06 |
| GRPPQPKSVSDLLDRINLKEHMPTFLFNGYEDLDTFKLLEEEDLDELNIRDPEHRAVLLTAVELLQEYDSN [E10S] | -0.423 ± 0.046 |
| GRPPQPKSVNDLLDRINLKEHMPTFLFNGYEDLDTFKLLEEEDLDELNIRDPEHRAVLLTAVELLQEYDSN [E10N] | -0.53 ± 0.061 |
| GRPPQPKSVVDLLDRINLKEHMPTFLFNGYEDLDTFKLLEEEDLDELNIRDPEHRAVLLTAVELLQEYDSN [E10V] | -0.413 ± 0.053 |
